Legend:
[1] = molecular target: T1, CYP6Z2 (Anopheles gambiae, UniProt A8I285); assay: resorufin fluorescence turnover, recombinant membranes; assay type: biochemical; conditions: 5 µM substrate, NADPH regeneration, cyt b5, 0.1 M KPi pH 7.4, 25°C
T1 construct: recombinant membrane preparation from earlier work; cytochrome b5 added
T1 sequence (A8I285 1-492): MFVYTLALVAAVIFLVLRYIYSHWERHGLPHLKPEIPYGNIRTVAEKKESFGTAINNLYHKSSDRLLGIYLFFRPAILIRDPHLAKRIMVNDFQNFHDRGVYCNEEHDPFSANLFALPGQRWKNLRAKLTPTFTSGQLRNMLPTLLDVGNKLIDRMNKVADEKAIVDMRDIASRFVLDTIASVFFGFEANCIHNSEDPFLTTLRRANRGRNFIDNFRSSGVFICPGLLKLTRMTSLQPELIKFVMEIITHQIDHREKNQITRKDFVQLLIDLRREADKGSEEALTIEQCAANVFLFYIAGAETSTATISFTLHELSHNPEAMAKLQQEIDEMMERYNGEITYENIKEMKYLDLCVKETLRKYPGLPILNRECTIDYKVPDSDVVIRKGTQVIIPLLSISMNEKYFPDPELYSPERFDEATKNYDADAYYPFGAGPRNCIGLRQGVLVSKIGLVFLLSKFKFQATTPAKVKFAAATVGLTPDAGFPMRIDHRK

[2] = substrate: CC1(C)C(C=C(Cl)Cl)C1C(=O)OCc1cccc(Oc2ccccc2)c1; assay: HPLC substrate depletion, recombinant E. coli membranes, Michaelis-Menten fit; assay type: biochemical, Aedes aegypti; conditions: 0.1 µM P450, 0.8 µM cyt b5, NADPH regeneration, 200 mM Tris-HCl pH 7.4, 30°C, 10 min, apparent
From the text: (§1) HPLC substrate depletion, recombinant E. coli membranes, Michaelis-Menten fit on CYP9J32

[3] = substrate: CC1(C)[C@H](C(=O)O[C@H](C#N)c2cccc(Oc3ccccc3)c2)[C@@H]1C=C(Br)Br; assay: as above; assay type: biochemical, Aedes aegypti; conditions: 0.1 µM P450, 0.8 µM cyt b5, NADPH regeneration, 200 mM Tris-HCl pH 7.4, 30°C, 10 min, apparent
From the text: as §1

[4] = substrate: CC1(C)C(C=C(Cl)Cl)C1C(=O)OCc1cccc(Oc2ccccc2)c1; assay: as above; assay type: biochemical, Aedes aegypti; conditions: 0.1 µM P450, 0.8 µM cyt b5, NADPH regeneration, 200 mM Tris-HCl pH 7.4, 30°C, 10 min, apparent; remark: listed apart in the source
From the text: (§2) HPLC substrate depletion, recombinant E. coli membranes, Michaelis-Menten fit on CYP9J26

[5] = substrate: CC1(C)[C@H](C(=O)O[C@H](C#N)c2cccc(Oc3ccccc3)c2)[C@@H]1C=C(Br)Br; assay: as above; assay type: biochemical, Aedes aegypti; conditions: 0.1 µM P450, 0.8 µM cyt b5, NADPH regeneration, 200 mM Tris-HCl pH 7.4, 30°C, 10 min, apparent; remark: listed apart in the source
From the text: as §2

`COc1ccc2nc3ccc(=O)cc-3oc2c1` [RME] was tested, and the “resorufin fluorescence turnover, recombinant membranes” value [1] was “greatest activity towards RME for the resorufin ethers and L-ME for the proluciferins”.

B1: CYP9J32 (Aedes aegypti) (protein)
chain: VIYRQVKKHYDYFHDKPIPSMATVPLLGSTGPLMTKRCTFNDFIQTIYNKYPSAKIFGLFDMTTKMFVLRDPEVIKKITVKDFEYFVDRRPLFGANKEDDGNENILFNKTLVGMVDQRWRDMRAILSPAFTGSKMRAMFELIEQYCTQMVPILKEQSAESGYVDYEMKDFFSRVANDIIATCAFGLQVESLKSRDNEFYTMGKQMMNFNRFIVLLRVMGLRFFPSLMIKMGVDIVDREQNQYFSKIIKEAVRARETHGIVRPDMIHLLMQARKGTLKHQQETTESTAGFATVEESDVGKSVVSKTMSEPEFIAQCLIFFLAGFDTVSTGMLFMAYELALNPDIQQKLYEEIAQTNKELGGKPATYDTLQKMKYMDMVVSESLRMWPVAAFDRKCGRDYVLDDGAGLKFTIDAGTCIWVPVYGIHRDPKYYPNPDKFEPERFSDENRGKIDMTMYMPFGMGPRNCIGSRFALMEIKAIMYALLLNFSIERNEKTQVPLKLVKGFVGLQVENGLHLRFKKRK
notes: full-length, ompA leader with Ala-Gly linker at N-terminus, E. coli DH5alpha membranes; co-expressed An. gambiae CPR, added An. gambiae cytochrome b5
B1 showed a Km [2] of 2.3 ± 1.1 µM, a kcat [2] of 0.0133 ± 0.00167 s⁻¹ and a Km [3] of 5.2 ± 2.1 µM. It also gave a kcat [3] of 0.05 ± 0.00833 s⁻¹.

B2: CYP9J26 (Aedes aegypti) (protein)
chain: MEVELLHVGVLVAIVAFLYRWITRNNDYFHDKPIPSMAVTPFLGASGPLLLRKVTFNDFVQSIYNKYPGVKVFGMFDTITPFFVIRDPELIKQIGIKDFDHFVDHRPTFGLDDETAEHPKALFRKTLFSMTGQRWKEMRATLSPAFTGSKMRQMFSLMSECCDEMMKHYLDKAKGSGRVEVEMKDLLSRISINVIASCAFGIKVDCFKEQEHEFLYHGRKMMGFGRPIVIARMLAMRVFPKFAAKFGIDLLDREQANYFTHVFQETIRARESHGYIRHDMIDLLLQARKGTLKYQEEKDDQEGFATVQESDVGKADVSKSMTEAEMIAQCLIFFLGGFDTVSTCAMFTAYELVRNPEVQHKLYEEIKQTEKELEGKPLSYDALQKMKYMDMVVSETLRMWPLAPATDRLCTQDYTIDDGQGVRFTIDKGTCVWFPAAGLHHDPQYFPNPEKFDPERFNDENKRNINLGAYLPFGIGPRNCIGSRFALMEVKAVMYFILLKFSFVRGAKTQIPMQLRKGFTNLGPENGMHVELKLR
notes: full-length, ompA-Ala-Pro leader at N-terminus, pCW-ori+, E. coli DH5alpha membranes; co-expressed An. gambiae CPR, added An. gambiae cytochrome b5
Molecule B2 has a Km [4] of 4.2 ± 0.9 µM, a kcat [4] of 0.01 ± 0.00167 s⁻¹ and a Km [5] of 1.2 ± 0.2 µM. It also gave a kcat [5] of 0.00367 ± 0.000167 s⁻¹.

From paper PMC3313934, “Pinpointing P450s Associated with Pyrethroid Metabolism in the Dengue Vector, Aedes aegypti: Developing New Tools to Combat Insecticide Resistance” (PLoS Neglected Tropical Diseases, 2012)
